From US20050025740A1 come the findings set out here.

The assay addresses binding site for alpha-melanocyte stimulating hormone on mouse melanoma cells (mouse). Nature of the assay: binding assay using mouse melanoma cells (Bagutti 1992); ratio against full-length natural alpha-MSH.

On to “control monooxime of the alpha-MSH analog Nle-Asp-His-(D)Phe-Arg-Trp-Lys-amide (aminooxyacetyl peptide oximated with acetaldehyde)”, for which the relative binding (Kd of full-length natural hormone divided by Kd of the oxime analog) stood at 0.82. “dioxime formed between the aminooxyacetyl peptide (AOA-Nle-Asp-His-(D)Phe-Arg-Trp-Lys-amide) and glyoxal (O=CH-CH=O)”: the relative binding (Kd of full-length natural hormone divided by Kd of the oxime analog) stood at 3.33.
